test: soluble on expression in E. coli; label from the status in PepcDB or PDB records

Sequence | soluble on expression in E. coli
MPMVLVVLDHDGNRLKKGSLEALTRARDLAQALGGKVAGVLLAEEKAPVEEARKYVEVLYTATLGPYTAEKWAAGVLKAAEASGAKAVVAPSSRQSRAYLGRVAYALRAGLLEDTLESRVEGGEVHATRYAYLNRVTQRVKAALPVVLTVKPNTTPLAEPLPGEAEAVALSVPEVPTVEVLERLQEEKKGVSLTEADVVVTGGRGMGSPEAFKLVEELAALLGGAVGATRAVVDAGWRPYAEQVGQTGKTVQPSLYIALGVSGAVQHLAGMNKSKYIVAVNKDPEAPIFKHADYGIVGDVHQVLPALIEAVKKLKD | soluble
MEEDSREDDFNGKIRRSLCEWLGPFEEFHDRVAKNQQTSRHGLIRSKMKPRPSPFVTLQAPPHESPSHVPVHVALQSMKNLVDERITEITHHEFADLKKGMNNVKSSATSSTDKKRKIGEDEDSQIEVKRKKESRNYIPPSTPDSGTHSTESDMIEEPNSDEVAAMLSIMKTLDTPKLSPLPKDFKVVCKEDEQPGPSSSKFPSDSSVSAASTSRESTPEPKLLGTLRIKALKPERVQKLIELAKTRGKLTDVVEVEKKVVEKVVEKQEKRVLEPLPPPPRPPSVPAVPAVPTPSRDPILGPGSGSARNSPLPPQKPANKTVQSLQGLQGSSRTMSPSPRNIRSTTPSVPSRPPSALSTHSHVETEVAAVATTSAPAEASAAVKPRFVCQWSHARLKKAQRVPFPDPSSTSTKTKGEFYHALAKDWKSKADNSKDRVTRPLNYMLSSVFFVLEAIWKADKERTTQSKMQCASIYRDTYELLGVAVFQGVRDTDDSLAVHILPRVKVIGQVMLAVMQYQMYIFRSEQAIKTMSRLDMREVSESIDIRPVSRASDSSSVHSQHLTVPTNKAVTSVAHGTPKPSPSAGSTPSGPTGAPVIPWIASIQACQNMVSMPQIVYDAYKSQLKTANGLMLASRYWEDSKTLSNIIDSGTFVKDVESIVGKSISMDMQFADLATFVLTAVGSLKAEYEEEQKQPAKPILAKVKKGLDLAIRTGTFHSDRPPPVHRPSNNTPDGKARRKQ | not soluble
MASKGAARVRKKEIVKVVHGALLRTNIKAQMASAAPPLGPQLGQRGLNVANFCKEFNKETGHFKQGVPLPTRITVKPDRTYDLEICTPTTTWLLKQAAGIGRGKASKDEIVGKLTVKHLYEIAKIKSRDKALQHVPLEQICRMLIKTCRTLGIDVQYHDLDPVELKEFLVARKEKVDAQLKDLADKKAAKMLRTT | not soluble
MVPAPEAIRQALQERLLARLDHPDPLYRDLLQDYPRRGGKMLRGLLTVYSALAHGAPLEAGLEAATALELFQNWVLVHDDIEDGSEERRGRPALHRLHPMPLALNAGDAMHAEMWGLLAEGLARGLFPPEVLLEFHEVVRRTAYGQHLDLLWTLGGTFDLRPEDYFRMVAHKAAYYTAVAPLRLGALLAGKTPPAAYEEGGLRLGTAFQIVDDVLNLEGGEAYGKERAGDLYEGKRTLILLRFLEEAPPEERARALALLALPREAKPEAEVGWLLERLLASRALAWAKAEAKRLQAEGLALLEAAFQDLPGKEALDHLRGLLAALVERRA | soluble
MGSDKIHHHHHHMNIDAHNLNDLMYFSQVVEHGGFSAAERVLGISKSRLSRRLTELEAALGVRLLQRSTRKLALTEAGELFYQHCQAMLAEAQAAMNAVQQLRSSPRGSVRVSVPVTLSQTMLSRILPEFLHRYPEVKVHIRVTNRVIDLFEDSVDVALRVRSEPPQNANIVVRPLWRTEQMLVGAPSLLSQNAPPLVPDDLARFETLDTPSVDGRHVFNLIAPDGTRHLHEHDPRLVTADLMTIREAVLDGLGIAALPEMMYGNALRAGQLSPVMPGWTLPVPQLYAAFVSRQGMPPAVRAFVDYLVEKLDHGDYKQPSCPERDKKEAAAADVSST | not soluble
MGSDKIHHHHHHNYENINSNPYEAPDLSADGYALGSAMNNLAGCVVSPDVNTAQFTDCLLGGPLGGYFADSNAGFTETISNFNPKDDWSRVFLKSDKIIPTLYSNLTQVKLVSQNTNDPVPYAIAQVIKVAAMHRVTDAFGPIPYSQIGANGEIATPYDSQEVTYNTFFDELNAAIATLNENSNEQLVPTADYIYKGDVKKWIRFANSLKLRLAIRIAYANPVKAQQMAEEAVNPANGGVIESNADNATWNYFETSQNPIYVATRYNQVQTSDHGGVPCLTGGDTHAAADIICYMNGYKDNRREKFFTKSEWAGQDYVGMRRGIVIPELKTTGHKYSGVNIAPTSPLYWMNAAEVAFLRAEGQAVFNFSMGGTAESFYNQGIRLSFEQWGADGVEDYLKDDVNKPTAYTDPAGTNTYQNALSNITIKWNDSADKEEKQERIIVQKWIANWQLGNEAWADFRRTGYPKLIPVKENKSGGVVDSEKGARRMPYPLDEFVSNKANVEYAIANYLHGADNMATDVWWASKK | not soluble
MSLAGVGGRPPPSVGSVVVADTTMFTDAKLREVLGARSLEEAARIMARILARASRMGLTVYITPSVRAEIERFMLGNGVHPTTIARLMAWVRVKPPTTHELRLPAAMFRRYVETVRARLDKGLRVAEDHVRRALRSRDEEGDIVRSLREKYREYTRKGMLDSVEDVDTLLLALELGAAIVTSDEGLRRAAEDLGLTVLTPVELLEYILALEEEVKSVEEEGHHHHHH | not soluble
MGHHHHHHSHMDDAAVLKRRGYLLGINLGEGSYAKVKSAYSERLKFNVAIKIIDRKKAPADFLEKFLPREIEILAMLNHCSIIKTYEIFETSHGKVYIVMELAVQGDLLELIKTRGALHEDEARKKFHQLSLAIKYCHDLDVVHRDLKCDNLLLDKDFNIKLSDFSFSKRCLRDDSGRMALSKTFCGSPAYAAPEVLQGIPYQPKVYDIWSLGVILYIMVCGSMPYDDSNIKKMLRIQKEHRVNFPRSKHLTGECKDLIYHMLQPDVNRRLHIDEILSHCWMQPKARGSPSVA | not soluble
MSLELKNKKIVVTGGTSGIGLAFAKKLAAIDNQIIIGSRSKEKITEVVKDNKNISGYQVDVSDQESVERFYKQTISEFKNIDIVINSAGIMRHYNLLDEKTTSQKLQAEIQTNLIGTINIDKIFLPILRKQAESMIVNISSGLANLSSAAHPIYSATKAGVHMFTDALREQLHFAGEDHIHIVELVPPLVAETNLEKDVNSQNTPLNIKLSDLINEAIQGIEENSIRINAGMAKEMRKMGQTDPDKNEREMATMMIPMYFPDGLKEGHHHHHH | not soluble
MSQVQSGILPEHCRAAIWIEANVKGEVDALRAASKTFADKLATFEAKFPDAHLGAVVAFGNNTWRALSGGVGAEELKDFPGYGKGLAPTTQFDVLIHILSLRHDVNFSVAQAAMEAFGDCIEVKEEIHGFRWVEERDLSGFVDGTENPAGEETRREVAVIKDGVDAGGSYVFVQRWEHNLKQLNRMSVHDQEMVIGRTKEANEEIDGDERPETSHLTRVDLKEDGKGLKIVRQSLPYGTASGTHGLYFCAYCARLHNIEQQLLSMFGDTDGKRDAMLRFTKPVTGGYYFAPSLDKLMAL | soluble
MGSDKIHHHHHHMERHNAIPIYDAELPLTSGVIPLVAGLTMPGCLRDASPDAWGRRVILNKRFGKTALQIDPGSIDELSYLIESGSDRIGALDFQRSPTEYIPRLASGAPLEELIKAAELVEKGVPLTPELAQALQHGTSIGGARPKALVQSDNHKFIAKFSTSTDLYSVVKAEFIAMKLALMAGLHVAPVNLLQVAGKDVLMVERFDRVAAPAGWQRKGIVSALTMLQLDEMMARYASYHDLANLVRQRFMRAPSTLRELFSRLAFNILIGNTDDHARNHAAFWDGRMLQLTPAYDICPQSRTGRTASQAMQISDGQNSSQITTCLKAAPHFLLNEAEAGLIIEGQIRCIEENWPTICEEADLSEIDRNLMWRNQVLNPFAFEGLEGSSLERLAKKYR | not soluble
MGEKLELRLKSPVGAEPAVYPWPLPVYDKHHDAAHEIIETIRWVCEEIPDLKLAMENYVLIDYDTKSFESMQRLCDKYNRAIDSIHQLWKGTTQPMKLNTRPSTGLLRHILQQVYNHSVTDPEKLNNYEPFSPEVYGETSFDLVAQMIDEIKMTDDDLFVDLGSGVGQVVLQVAAATNCKHHYGVEKADIPAKYAETMDREFRKWMKWYGKKHAEYTLERGDFLSEEWRERIANTSVIFVNNFAFGPEVDHQLKERFANMKEGGRIVSSKPFAPLNFRINSRNLSDIGTIMRVVELSPLKGSVSWTGKPVSYYLHTIDRTILENYFSSLKNPKLREEQEAARRRQQRESKSNAATPTKGPEGKVAGPADAPMDSGAEEEKAGAATVKKPSPSKARKKKLNKKGRKMAGRKRGRPKK | soluble
MSLSKSMARARNRCLPMNFRAEDLASGILRERVKVGASLADVDPMNIDKSVRFDSIGGLSHHIHALKEMVVFPLLYPEIFEKFKIQPPRGCLFYGPPGTGKTLVARALANECSQGDKKVAFFMRKGADCLSKWVGESERQLRLLFDQAYLMRPSIIFFDEIDGLAPVRSSRQDQIHSSIVSTLLALMDGLDNRGEIVVIGATNRLDSIDPALRRPGRFDREFLFNLPDQKARKHILQIHTRDWNPKLSDAFLGELAEKCVGYCGADIKALCTEAALIALRRRYPQIYASSHKLQLDVSSIVLSAQDFYHAMQNIVPASQRAVMSSGHALSPIIRPLLERSFNNILAVLQKVFPHAEISQSDKKEDIETLILEDSEDENALSIFETNCHSGSPKKQSSSAAIHKPYLHFTMSPYHQPTSYRPRLLLSGERGSGQTSHLAPALLHTLERFSVHRLDLPALYSVSAKTPEESCAQIFREARRTVPSIVYMPHIGDWWEAVSETVRATFLTLLQDIPSFSPIFLLSTSETMYSELPEEVKCIFRIQYEEVLYIQRPIEEDRRKFFQELILNQASMAPPRRKHAALCAMEVLPLALPSPPREGHHHHHH | not soluble
GPGSMGMSVTMINAIPLLRSMHANCVCPVCFEVFKKPVCFPCGHILCRACATRCIAARPRCPLCNQAVPNMRHCAPLPQLSLLCVLTREVGLRASGLQLRSSVQNAATPLSHRNHDSSMKRHRGATADDAVEETQGEHQAPRPRRSSLSPPPEQRPFLSLREPRASHRVANAVAATEGSTANHAQHTSLPELLRAAAGETQRLQSESPPPPLLMVGEGDDVLLGEAPHRSIIAQVTTSLPSAIAHRVGDSGALGRGQDQPPTPTPPPALSPSPAPFSTPLQLMCNHITDHADQLDSTPLLSPLPFTAFAVVEAASVTAAASVTHRSAQASSRVLATEHASNAKKASSWSLWRRGRGVIHCTLTPPAARLLARQSVVADGAGRGKTEAASKTASSSSAASADTAASLWHRFGCCALCGLDVVQRAAVRQRLQHLLRSPTAHCDPAELAMQTEESLSLLLGPLWGVCCEVQEHSTNIAQSQVSTCEGEYTTTELDAVQGSYCCPCRGEVTAHHVTGVAHHNCLAWAGLLDFFTNTSLEDLPAAAAAGVYFVPSMTASLHMTVPLQDPLGVLAARTSGRVARWQLLAATLCHMHQRDADEESELGKRVQTSGESGAEGPLMTPRCALCEDGAPLLASNSPSFPFGAGLRVCEGTERGESSCGQQYHYPCALLAGASACIIFGLEDECNVLDASASTPVRDRSAGGKRRGVERPVEVWCGVCHERHEVCRRRV | not soluble
MESMLLPKYFDILIVDDIPEHIDVAVQVLRDSNFKIRVATDGNTALKLIYQQKPDLILLDIYMPEMDGFELCRLIKNTPDLKNIPVIFLTSFSDEESIRKGFESGGQDYVVKPFNASELLSRVKTHLMLKCQAESLKEANKELDSFCYTVAHDLKSPLLSLNKLVELLVSDHLNQLDSAGKELVYNIREKSSEIIHTVDRLLEFSKMCEMQVNFEIIDLNELFTEVCNELKSLEPQRDIRIHIQPLPKVYGDRLLMRLLISNILSNAFKYTRNRQTAIIEIQSSEDGNEYVFFVKDNGAGFDMKYSSRLFGVFQRLHSKDEFEGSGVGLAICQRILKRHNGRAWMTGEIDKGATFFFTLPKFE | soluble
MTNKDIYKNNPLHGTSLETVLTTLVDHYGFEILAAYMNLNCFKQNASIESSLKFLKKTQWAQEKVEAFYMYQYNSLPKADDANFELPPRDRIVPSGLEQRPPKELSLDDAEELRIKQAKKTRERAAAATSANPWGSRLEHHHHHH | not soluble

Source: the DeepSol protein solubility set
